From doi:10.1101/2024.12.16.628704
Blank lines part the entries; values can stand above or below the substance they belong to.

How the values were obtained:
[1] = biological target: sialylated IgG1 V11 (G237D, P238D, H268D, P271G, A330R) Fc (human); test: SPR
[2] = biological target: sialylated IgG1 GA (G236A) Fc (human); test: SPR

fold weaker affinity against WT sFc [1]: 193 fold
Substance: FcγRIA (CD64) (from UniProt P12314 16-374) (receptor)

fold change in affinity against WT sFc [2]: 10 fold
Substance: FcγRIIA (CD32a), variant not named in the sentence (from UniProt P12318 34-317) (receptor)

fold change in affinity against WT sFc [1]: 37 fold
Substance: FcγRIIB (CD32b), as used in SPR with Fc proteins (from UniProt P31994 43-310) (receptor)
